Data on two molecules can be found in publication doi:10.1101/2021.02.18.431786 (bioRxiv, 2021).

Assay [1] deals with T1, Human ABCG2 (breast cancer resistance protein), wild type, N-terminal Flag tag, reconstituted in nanodiscs (human), Q9UNQ0.
T1 chain: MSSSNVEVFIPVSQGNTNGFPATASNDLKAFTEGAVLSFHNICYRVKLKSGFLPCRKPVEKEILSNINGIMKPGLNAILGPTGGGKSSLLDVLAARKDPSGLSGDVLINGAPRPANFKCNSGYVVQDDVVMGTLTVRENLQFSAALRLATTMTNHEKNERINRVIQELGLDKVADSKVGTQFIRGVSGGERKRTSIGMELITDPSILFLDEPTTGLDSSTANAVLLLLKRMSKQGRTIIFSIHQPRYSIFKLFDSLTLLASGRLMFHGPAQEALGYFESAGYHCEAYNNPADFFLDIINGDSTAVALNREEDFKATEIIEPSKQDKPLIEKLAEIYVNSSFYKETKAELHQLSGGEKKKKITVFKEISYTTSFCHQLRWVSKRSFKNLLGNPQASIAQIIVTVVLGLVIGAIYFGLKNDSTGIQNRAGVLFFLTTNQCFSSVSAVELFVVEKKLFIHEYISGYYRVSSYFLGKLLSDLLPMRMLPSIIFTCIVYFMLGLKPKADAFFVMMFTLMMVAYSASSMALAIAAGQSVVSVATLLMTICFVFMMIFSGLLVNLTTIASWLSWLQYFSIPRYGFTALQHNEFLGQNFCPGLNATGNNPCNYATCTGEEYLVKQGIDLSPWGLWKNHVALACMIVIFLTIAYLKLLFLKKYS
The assay can be described thus: cryo-EM structure. To be noted: remark: other sources report otherwise.

For assay [2], the target named is Human ABCG2 (breast cancer resistance protein), wild type, N-terminal Flag tag, reconstituted in nanodiscs (human, UniProt Q9UNQ0). Nature of the assay: cryo-EM structure.

B1: Human ABCG2 (breast cancer resistance protein), wild type, N-terminal Flag tag, reconstituted in nanodiscs, Q9UNQ0 1-655 (natural protein)
chain: T1 chain
The molecule B1 showed a stoichiometry N in assay [1] of 2.

B2: Fab fragment of the ABCG2-specific monoclonal antibody 5D3 (Fab, V domains shown)
VH: QVQLQESGPGLVKPSQSLSLTCTVTGFSITSDYAWNWIRQFPGKKLEWMGYINFDGGTTYNPSLRGRISITRDTSKNQFFLQLRSVTPEDTATYYCATFYGAKGTLDYWGQGTSVTVSS
VL: DIVLTQSPSSFSVSLGDRVTISCKASGYILNRLAWYQQKPGNAPRLLISGATSLETGFPSRFSGTGSGKDYTLSISSLQTEDVGTYYCQQYWSTPWTFGGGTKLEIR
On to B2, for which the binding result in assay [2] is listed as “binds”.

As usually defined, the stoichiometry N is a count of units in the complex or per binding partner.
